Test results published in patent publication US20140004107A1 (published 2014).
Positions count from the first letter of the chain named.

T1: cynomolgus monkey ST2 (SPR analyte) (cynomolgus monkey, UniProt Q01638 19-322 (human entry))
T1 construct: The cyno ST2 reagent injected in SPR; leader is 1-18; also called cy ST2
T1 chain: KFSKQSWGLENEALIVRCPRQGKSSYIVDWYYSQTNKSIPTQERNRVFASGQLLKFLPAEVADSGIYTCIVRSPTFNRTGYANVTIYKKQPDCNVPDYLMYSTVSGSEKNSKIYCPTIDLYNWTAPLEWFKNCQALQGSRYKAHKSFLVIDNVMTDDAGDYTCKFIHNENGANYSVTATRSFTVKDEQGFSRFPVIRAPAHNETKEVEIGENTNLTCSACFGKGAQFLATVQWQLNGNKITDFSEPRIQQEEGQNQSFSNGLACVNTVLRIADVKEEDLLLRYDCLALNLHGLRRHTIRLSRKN

T2: human ST2 (SPR analyte) (human, UniProt Q01638 19-322)
T2 construct: The ST2 reagent injected in SPR; leader is 1-18; also called hu ST2
T2 sequence: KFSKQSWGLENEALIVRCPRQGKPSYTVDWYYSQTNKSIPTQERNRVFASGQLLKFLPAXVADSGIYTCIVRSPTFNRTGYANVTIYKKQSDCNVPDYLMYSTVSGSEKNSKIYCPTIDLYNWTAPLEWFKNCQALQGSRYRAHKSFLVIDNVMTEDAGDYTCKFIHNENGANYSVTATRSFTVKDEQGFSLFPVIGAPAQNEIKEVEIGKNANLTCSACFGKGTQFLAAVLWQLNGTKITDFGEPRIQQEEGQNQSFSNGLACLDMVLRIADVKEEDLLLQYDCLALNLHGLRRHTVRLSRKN

T3: biotinylated human ST2-Fc (human, UniProt Q01638 19-331, biotinylated)
T3 construct: also called ST2-Fc fusion protein; not shown: human antibody Fc domain
T3 sequence: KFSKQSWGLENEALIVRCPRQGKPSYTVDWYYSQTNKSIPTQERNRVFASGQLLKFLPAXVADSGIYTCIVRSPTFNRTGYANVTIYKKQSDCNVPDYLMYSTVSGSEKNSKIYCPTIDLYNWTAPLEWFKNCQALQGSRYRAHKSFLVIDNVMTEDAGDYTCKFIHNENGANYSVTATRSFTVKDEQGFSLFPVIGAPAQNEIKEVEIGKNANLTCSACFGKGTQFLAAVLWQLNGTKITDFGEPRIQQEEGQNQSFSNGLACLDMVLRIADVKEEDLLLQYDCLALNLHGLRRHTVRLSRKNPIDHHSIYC

T4: soluble human ST2-FLAG His (human, UniProt Q01638 19-322, limits assumed)
T4 construct: also called human ST2-FH; 6xhistidine tagged human ST2; not shown: FLAG and 6x histidine tags
T4 sequence: T2 sequence

T5: cynomolgus monkey ST2 on cynomolgus CD4+ T cells (cynomolgus monkey, UniProt Q01638 19-556 (human entry))
T5 chain: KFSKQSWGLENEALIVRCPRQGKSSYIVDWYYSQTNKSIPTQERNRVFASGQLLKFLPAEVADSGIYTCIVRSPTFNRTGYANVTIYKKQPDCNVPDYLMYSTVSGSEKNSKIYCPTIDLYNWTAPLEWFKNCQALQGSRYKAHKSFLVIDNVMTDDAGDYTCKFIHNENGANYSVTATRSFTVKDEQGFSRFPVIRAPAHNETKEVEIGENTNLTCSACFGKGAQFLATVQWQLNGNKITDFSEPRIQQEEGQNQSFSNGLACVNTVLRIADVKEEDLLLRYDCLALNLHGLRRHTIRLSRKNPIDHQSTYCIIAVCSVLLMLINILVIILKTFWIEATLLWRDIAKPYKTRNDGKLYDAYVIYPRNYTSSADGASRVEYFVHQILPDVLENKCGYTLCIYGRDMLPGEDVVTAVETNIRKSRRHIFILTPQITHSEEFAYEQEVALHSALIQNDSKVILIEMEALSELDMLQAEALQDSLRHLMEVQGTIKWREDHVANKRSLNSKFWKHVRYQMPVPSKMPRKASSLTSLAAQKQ

T6: human ST2 on human primary cells (human, UniProt Q01638 19-556)
T6 sequence: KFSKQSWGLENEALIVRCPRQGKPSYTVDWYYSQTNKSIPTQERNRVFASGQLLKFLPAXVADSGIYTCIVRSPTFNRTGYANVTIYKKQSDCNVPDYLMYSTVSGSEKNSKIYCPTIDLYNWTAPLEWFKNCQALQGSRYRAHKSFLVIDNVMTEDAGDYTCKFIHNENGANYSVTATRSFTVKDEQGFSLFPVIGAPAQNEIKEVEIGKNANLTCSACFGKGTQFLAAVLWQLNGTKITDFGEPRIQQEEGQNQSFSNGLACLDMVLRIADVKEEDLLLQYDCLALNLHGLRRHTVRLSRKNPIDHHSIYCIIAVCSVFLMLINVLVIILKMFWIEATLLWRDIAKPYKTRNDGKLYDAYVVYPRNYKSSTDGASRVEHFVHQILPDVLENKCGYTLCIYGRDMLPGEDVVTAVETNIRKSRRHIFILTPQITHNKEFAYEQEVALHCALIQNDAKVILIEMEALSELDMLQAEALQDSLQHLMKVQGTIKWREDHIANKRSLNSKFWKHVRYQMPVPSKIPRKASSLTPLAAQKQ

B1: Ab30 (antibody, human IgG2, kappa, V domains shown)
VH: QVQLVESGGGVVQPGRSLRLSCTASGFTFSSHGMHWVRQAPGKGLEWVTIIWFDGNNKYYADSVEGRFTISRDNSKNTLFLQMNSLRAEDTAVYYCAREGAEQGFIDLWGRGTLVTVSS
VL: DIQMTQSPSSLSASVGDRVTITCQASQDISNYLNWYHQKPGKAPKLLIYDASNLETGVPSRFSGSGSGTDFTFTISGLQPEDIATYYCQQHDNLPLTFGGGTKVEIKR
notes: fully human anti-ST2 antibody
B2: Ab32 (antibody, human IgG2, kappa, V domains shown)
VH: EVQLVESGGGLVQPGGSLRLSCAASGFTFSTFDMHWVRQATGKGLEWVSSIDTEGDTYYSGSVKGRFTISRENARNSLYLQMNSLRAGDTAVYYCTRGEDWSDDDYYYGLDVWGQGTTVTVSS
VL: NIVMTQTPLSLSVTPGQPASISCKSSQSLLHSDGKTYLFWYLQKPGQPPQLLIYGVSNRFSGVPDRFSGSGSGTDFTLKISRVEAEDVGVYYCMQSLQLFTFGPGTKVEIKR
notes: fully human anti-ST2 antibody
B3: Ab33 (antibody, human IgG2, kappa, V domains shown)
VH: B2 VH with A40V, T41P, V48I, S60P
VL: B2 VL with Y92S, E109D
notes: fully human anti-ST2 antibody
B4: Ab3 (antibody, human IgG2, kappa, V domains shown)
VH: EVQLVESGGGLVQPGGSLRLSCAASGFTFSTYDMHWIRQAPGKNLEWVSAIDLAGDTYYPGSVKGRFTISREDAKNSLYLQMNSLRAGDTAVYYCARGGDGYNYDYYGIDVWGQGTTVTVSS
VL: DIVMTQSPLSLPVTPGEPASISCRSSQSLLHSDGYHYLDWYLQKPGQSPQLLIYLGSNRASGVPDRFTGSGSGTDFTLKISRVEAEDVGVYYCMQALQILTFGGGTKVEIKR
notes: fully human anti-ST2 antibody
B5: Ab4 (antibody, human IgG2, kappa, V domains shown)
VH: QVQLVQSGAEVKKPGASVKVSCEVSGFILTELSVNWVRQAPGKGLEWMGGFDPEDGKTIYAQKFQGRVTLTEDTSTDTAYMELSSLRSEDTAVYYCATWWDFHFDFWGQGTLVTVSS
VL: DFVMTQTPLSLSVTPGQPASISCKSSQSLLHSNGKTYLYWFLQKPGQPPQLLIYEVSNRFSGVPDRFSGSGSGTDFTLKISRVEAEDVGVYYCMQSIQLPLTFGGGTKVEIKR
notes: fully human anti-ST2 antibody
B6: Ab1 (antibody, human IgG2, kappa, V domains shown)
VH: QVQLVQSGAEVKKPGASVKVSCKVSGYTLTELSIHWVRQAPGKGLEWMGGFGPEDGETIYAQKFQGRVTMTEDTSTDTAYMELSSLRSEDTAVYYCTTEDSSGLFDYWGQGTLVTVSS
VL: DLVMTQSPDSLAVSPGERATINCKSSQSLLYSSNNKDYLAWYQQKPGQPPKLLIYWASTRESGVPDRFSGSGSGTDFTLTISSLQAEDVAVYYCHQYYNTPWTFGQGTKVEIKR
notes: fully human anti-ST2 antibody
B7: Ab6 (antibody, human IgG2, kappa, V domains shown)
VH: B4 VH with I37V, A40T, P41T, N44G
VL: B4 VL with T68S, K79N, I99T
notes: fully human anti-ST2 antibody
B8: Ab7 (antibody, human IgG2, kappa, V domains shown)
VH: B4 VH with I37V, A40T, P41T, N44G
VL: B4 VL with T68S, K79N, I99T
notes: fully human anti-ST2 antibody
B9: Ab5 (antibody, human IgG2, kappa, V domains shown)
VH: EVQLVESGGGWVQPGGSLRLSCAASGFTFSSYDMYWVRQATGKGLEWVSGIDTVGDTYYPDSVKGRFTISRENAKNSVYLQMNTLRAGDTAVYYCVRGIYGDFYYYGLDVWGHGTTVTVSS
VL: B4 VL with H31Y, Y35N, H36N, Q50H, T68S, E86D, I99T

Biological target: T1, cynomolgus monkey ST2 (SPR analyte)
Experiment: SPR ProteOn XPR-36, captured antibody, ST2 analyte, 25 C

Binder | Kd [pM]
B1 | 10.2
B2 | 55.8
B3 | 77.6

biological target: T2, human ST2 (SPR analyte); experiment: as above

Binder | Kd [pM]
B1 | 9.7
B2 | 60.2
B3 | 84.4

biological target: T2, human ST2 (SPR analyte); experiment: SPR Biacore 4000, association at pH 7.4, dissociation at pH 5.5 (estimated kd)
Protocol: (§1) The association (5 min) rates at pH 7.4 and dissociation (10 min) rates at pH 5.5 and 7.4 were monitored at a flow rate of 30 uL/min. The reference subtracted data was fit to a 1:1 model in Scrubber.

Binder | koff [s⁻¹]
B4 | 7.91e-05
B5 | 0.0107
B6 | 0.0118

biological target: T2, human ST2 (SPR analyte); experiment: SPR Biacore 4000, association at pH 7.4, dissociation at pH 7.4 (estimated kd)
Protocol: as §1

Binder | koff [s⁻¹]
B4 | 2.73e-05
B5 | 0.000632
B6 | 0.000134

biological target: T3, biotinylated human ST2-Fc; experiment: AlphaScreen, IL-33 mediated association of biotinylated human ST2-Fc with human AcP-FH, antibody at 12.5 ug/ml
Protocol: In the second assay, antibodies were evaluated for the ability to inhibit the IL-33 mediated association of ST2 with the co-receptor AcP. […] The ST2/AcP AlphaScreen was conducted in 8 ul reactions in a 384 well optiplate (Perkin Elmer). […] After the addition of all assay components the plates were incubated overnight in the dark at room temperature. The next day the plates were read on a 2103 Envision multilable reader (Perkin Elmer) using the same parameters as above for the first assay.

Binder | % inhib ST2-AcP AS 12.5 ug/ml [%]
B7 | 71.2
B4 | 68.7
B5 | 77.8
B8 | 75.7
B6 | 86.9

biological target: T4, soluble human ST2-FLAG His; experiment: AlphaScreen, biotinylated human IL-33 with human ST2-FH, antibody at 12.5 ug/ml

Binder | % inhib ST2-IL33 AS 12.5 ug/ml [%]
B7 | 98.5
B4 | 98.8
B5 | 98.4
B8 | 98.9
B6 | 98.1

Biological target: T1, cynomolgus monkey ST2 (SPR analyte)
Experiment: SPR Biacore 3000, captured antibody, ST2 analyte, 25 C

Binder | Kd [pM] | koff [s⁻¹] | kon [M⁻¹ s⁻¹]
B4 | 127 | 8.55e-05 | 674000
B5 | 516 | 0.00129 | 2.5e+06
B6 | 117 | 0.000197 | 1.69e+06

biological target: T2, human ST2 (SPR analyte); experiment: as above

Binder | Kd [pM] | koff [s⁻¹] | kon [M⁻¹ s⁻¹]
B4 | 238 | 9.5e-05 | 400000
B5 | 301 | 0.000706 | 2.35e+06
B6 | 77.7 | 0.000111 | 1.43e+06

biological target: T2, human ST2 (SPR analyte); experiment: SPR Biacore 4000, kd at pH 5.5 against kd at pH 7.4
Protocol: as §1

Binder | pH 5.5/pH 7.4 koff fold change [fold]
B4 | 2.9
B5 | 16.9
B6 | 88.1

Biological target: T5, cynomolgus monkey ST2 on cynomolgus …
Experiment: cell-based or functional assay

Binder | IC-50, cynomolgus monkey CD4+ T cell IFNγ release assay (IL-33, IL-2 and IL-12p70 stimulation) [pM]
B7 | 47.1
B4 | 15.2
B5 | 4.03
B9 | 12.9
B8 | 40
B6 | 15.8

biological target: T6, human ST2 on human primary cells; experiment: cell-based or functional assay

Binder | IC-50, human eosinophil IL-8 release assay (IL-33 and IL-3 stimulation) [pM]
B7 | 63
B4 | 50.4
B5 | 14.1
B9 | 73.3
B8 | 40.7
B6 | 51.5

biological target: T6, human ST2 on human primary cells; experiment: cell-based or functional assay; remark: another data set of the same source

Binder | IC50 of inhibition of human IL-33-induced IL-5 production from human CD4+ T cells [pM]
B9 | 64500
B6 | 10700
